Data on three molecules can be found in patent US20160176924A1 (UNIVERSITY OF COPENHAGEN, published 2016).

To fix the notation:
B1: 5-FAM/Cy5-NR2B (peptide)
peptide: 5FAM-KSGYEKLSSIESDV
modifications: also: entry also covers Cy5-NR2B: CSG linker, Cy5-maleimide on Cys
notes: Kd said to be independent of the fluorophore; also called 5-FAM-NR2B; 5-Fam-NR2B peptide
B2: HIS-PDZ3 protein (PSD-95 PDZ3, residues 309-401, with tag MHHHHHPRGS) (other)
chain: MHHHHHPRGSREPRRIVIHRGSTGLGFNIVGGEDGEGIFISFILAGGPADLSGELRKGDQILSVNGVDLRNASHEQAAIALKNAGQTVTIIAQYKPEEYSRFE

Test [1] addresses B2. Nature of the test: FP competition, fluorescent CRIPT probe.
Test [2] has as its target T1, HIS-PDZ1-2 protein (PSD-95 PDZ1-2 tandem, residues 61-249, with tag …) (human, UniProt P78352 61-249). Nature of the test: FP competition, fluorescent NR2B probe.
Test [3] has as its target T2, HIS-PDZ1 protein (PSD-95 PDZ1, residues 61-151, with tag …) (human, UniProt P78352 61-151).
T2 construct: expressed in E. coli
Briefly: FP saturation binding.

In test [4] the target is HIS-PDZ2 protein (PSD-95 PDZ2, residues 155-249, with tag …) (human, UniProt P78352 155-249). Briefly: FP saturation binding.
In test [5] the target is T1, HIS-PDZ1-2 protein (PSD-95 PDZ1-2 …). Briefly: FP saturation binding.
The target of test [6] is B2. Nature of the test: FP saturation binding.
In test [7] the target is T3, Tat-NR2B (3).
T3 construct: also called Tat-N2B (3); 20-mer Tat-NR2B peptide
Briefly: FP competition, fluorescent CRIPT probe.

Ends that are not written are not given here. * marks the point of attachment. 5FAM = O=C1OC2(c3ccc(O)cc3Oc3cc(O)ccc32)c2ccc(C(=O)*)cc21

For the molecule KSGYEKLSSIESDV (also called NR2B peptide (1); NR2B WT) [NR2B (1), non-fluorescent NR2B peptide KSG-YEKLSSIESDV], the binding result in test [1] is recorded as “no binding”. Also, in test [2], the Ki (usually a dissociation constant, usually derived from enzyme kinetics or from competition with a known ligand) was found to be 6.8 µM.

Take B1: the equilibrium dissociation constant (Kd) (in general, the concentration at which binding is half-saturated) in test [3] is 20 µM; in test [4] it was 3 µM; in test [5], 1.7 µM. Also, in test [6], the binding result is listed as “no binding”.

Turning to B2, in test [7], the binding result was “no binding”.
